Source: IntAct's records for PubMed 31515488

B1: EF-hand domain-containing protein 1 (Homo sapiens), Q5JVL4 (parent)
chain: MVSNPVHGLPFLPGTSFKDSTKTAFHRSQTLSYRNGYAIVRRPTVGIGGDRLQFNQLSQAELDELASKAPVLTYGQPKQAPPADFIPAHVAFDKKVLKFDAYFQEDVPMSTEEQYRIRQVNIYYYLEDDSMSVIEPVVENSGILQGKLIKRQRLAKNDRGDHYHWKDLNRGINITIYGKTFRVVDCDQFTQVFLESQGIELNPPEKMALDPYTELRKQPLRKYVTPSDFDQLKQFLTFDKQVLRFYAIWDDTDSMYGECRTYIIHYYLMDDTVEIREVHERNDGRDPFPLLMNRQRVPKVLVENAKNFPQCVLEISDQEVLEWYTAKDFIVGKSLTILGRTFFIYDCDPFTRRYYKEKFGITDLPRIDVSKREPPPVKQELPPYNGFGLVEDSAQNCFALIPKAPKKDVIKMLVNDNKVLRYLAVLESPIPEDKDRRFVFSYFLATDMISIFEPPVRNSGIIGGKYLGRTKVVKPYSTVDNPVYYGPSDFFIGAVIEVFGHRFIILDTDEYVLKYMESNAAQYSPEALASIQNHVRKREAPAPEAESKQTEKDPGVQELEALIDTIQKQLKDHSCKDNIREAFQIYDKEASGYVDRDMFFKICESLNVPVDDSLVKELIRMCSHGEGKINYYNFVRAFSN
B2: Splicing factor 45 (Homo sapiens), Q96I25 (parent)
chain: MSLYDDLGVETSDSKTEGWSKNFKLLQSQLQVKKAALTQAKSQRTKQSTVLAPVIDLKRGGSSDDRQIVDTPPHVAAGLKDPVPSGFSAGEVLIPLADEYDPMFPNDYEKVVKRQREERQRQRELERQKEIEEREKRRKDRHEASGFARRPDPDSDEDEDYERERRKRSMGGAAIAPPTSLVEKDKELPRDFPYEEDSRPRSQSSKAAIPPPVYEEQDRPRSPTGPSNSFLANMGGTVAHKIMQKYGFREGQGLGKHEQGLSTALSVEKTSKRGGKIIVGDATEKDASKKSDSNPLTEILKCPTKVVLLRNMVGAGEVDEDLEVETKEECEKYGKVGKCVIFEIPGAPDDEAVRIFLEFERVESAIKAVVDLNGRYFGGRVVKACFYNLDKFRVLDLAEQV
partner: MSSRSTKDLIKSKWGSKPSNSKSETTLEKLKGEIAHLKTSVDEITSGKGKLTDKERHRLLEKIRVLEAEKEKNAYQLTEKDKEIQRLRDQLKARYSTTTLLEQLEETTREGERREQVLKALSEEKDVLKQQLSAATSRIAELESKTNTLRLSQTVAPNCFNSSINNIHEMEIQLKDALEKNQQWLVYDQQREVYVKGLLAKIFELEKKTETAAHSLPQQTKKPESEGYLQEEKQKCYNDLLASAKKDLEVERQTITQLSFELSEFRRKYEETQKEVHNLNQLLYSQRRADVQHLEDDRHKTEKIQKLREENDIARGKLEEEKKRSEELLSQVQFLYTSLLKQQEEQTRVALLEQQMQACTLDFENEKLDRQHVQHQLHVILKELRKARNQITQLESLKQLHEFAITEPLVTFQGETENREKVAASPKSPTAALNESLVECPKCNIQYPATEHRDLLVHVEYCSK
B3: Protein NOXP20 (Homo sapiens), Q8IWE2 (parent)
chain: MSDDAGDTLATGDKAEVTEMPNSDSLPEDAEVHCDSAAVSHEPTPADPRGEGHENAAVQGAGAAAIGPPVQPQDANALEPPLNGDVTEDTLAECIDSVSLEAEPRSEIPLQEQNYLAVDSPPSGGGWAGWGSWGKSLLSSASATVGHGLTAVKEKAGATLRIHGVNSGSSEGAQPNTENGVPEITDAATDQGPAESPPTSPSSASRGMLSAITNVVQNTGKSVLTGGLDALEFIGKKTMNVLAESDPGFKRTKTLMERTVSLSQMLREAKEKEKQRLAQQLTMERTAHYGMLFDEYQGLSHLEALEILSNESESKVQSFLASLDGEKLELLKNDLISIKDIFAAKELENEENQEEQGLEEKGEEFARMLTELLFELHVAATPDKLNKAMKRAHDWVEEDQTVVSVDVAKVSEEETKKEEKEEKSQDPQEDKKEEKKTKTIEEVYMSSIESLAEVTARCIEQLHKVAELILHGQEEEKPAQDQAKVLIKLTTAMCNEVASLSKKFTNSLTTVGSNKKAEVLNPMISSVLLEGCNSTTYIQDAFQLLLPVLQVSHIQTSCLKAQP
B4: Caspase recruitment domain-containing protein 9 (Homo sapiens), Q9H257 (parent)
chain: MSDYENDDECWSVLEGFRVTLTSVIDPSRITPYLRQCKVLNPDDEEQVLSDPNLVIRKRKVGVLLDILQRTGHKGYVAFLESLELYYPQLYKKVTGKEPARVFSMIIDASGESGLTQLLMTEVMKLQKKVQDLTALLSSKDDFIKELRVKDSLLRKHQERVQRLKEECEAGSRELKRCKEENYDLAMRLAHQSEEKGAALMRNRDLQLEIDQLKHSLMKAEDDCKVERKHTLKLRHAMEQRPSQELLWELQQEKALLQARVQELEASVQEGKLDRSSPYIQVLEEDWRQALRDHQEQANTIFSLRKDLRQGEARRLRCMEEKEMFELQCLALRKDSKMYKDRIEAILLQMEEVAIERDQAIATREELHAQHARGLQEKDALRKQVRELGEKADELQLQVFQCEAQLLAVEGRLRRQQLETLVLSSDLEDGSPRRSQELSLPQDLEDTQLSDKGCLAGGGSPKQPFAALHQEQVLRNPHDAGLSSGEPPEKERRRLKESFENYRRKRALRKMQKGWRQGEEDRENTTGSDNTDTEGS
partner: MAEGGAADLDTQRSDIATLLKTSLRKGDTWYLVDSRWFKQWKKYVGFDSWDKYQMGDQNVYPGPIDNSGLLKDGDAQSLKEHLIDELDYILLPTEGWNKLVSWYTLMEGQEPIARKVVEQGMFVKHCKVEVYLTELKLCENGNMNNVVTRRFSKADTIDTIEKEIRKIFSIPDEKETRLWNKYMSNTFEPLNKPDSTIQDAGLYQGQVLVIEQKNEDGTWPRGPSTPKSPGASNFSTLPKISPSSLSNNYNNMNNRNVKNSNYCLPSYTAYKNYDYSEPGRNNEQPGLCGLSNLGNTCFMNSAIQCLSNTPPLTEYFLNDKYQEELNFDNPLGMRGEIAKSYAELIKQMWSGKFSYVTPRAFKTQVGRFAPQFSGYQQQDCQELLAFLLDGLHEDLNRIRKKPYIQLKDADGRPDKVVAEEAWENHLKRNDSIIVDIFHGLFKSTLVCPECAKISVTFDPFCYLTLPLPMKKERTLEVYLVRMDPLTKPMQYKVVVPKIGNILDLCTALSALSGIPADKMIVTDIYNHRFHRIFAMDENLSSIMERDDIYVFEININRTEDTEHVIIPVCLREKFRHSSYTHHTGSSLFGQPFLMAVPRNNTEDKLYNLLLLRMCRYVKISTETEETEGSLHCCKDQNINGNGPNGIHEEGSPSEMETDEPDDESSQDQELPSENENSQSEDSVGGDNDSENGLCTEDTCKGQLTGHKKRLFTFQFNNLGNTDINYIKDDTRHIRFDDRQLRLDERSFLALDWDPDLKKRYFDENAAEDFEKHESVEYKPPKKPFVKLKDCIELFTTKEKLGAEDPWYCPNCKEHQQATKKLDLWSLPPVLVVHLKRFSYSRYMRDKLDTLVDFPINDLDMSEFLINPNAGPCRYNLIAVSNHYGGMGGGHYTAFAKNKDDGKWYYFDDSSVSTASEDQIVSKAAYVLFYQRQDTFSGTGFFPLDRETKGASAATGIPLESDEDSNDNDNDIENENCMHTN
B5: Tuftelin-interacting protein 11 (Homo sapiens), Q9UBB9 (parent)
chain: MSLSHLYRDGEGRIDDDDDERENFEITDWDLQNEFNPNRQRHWQTKEEATYGVWAERDSDDERPSFGGKRARDYSAPVNFISAGLKKGAAEEAELEDSDDEEKPVKQDDFPKDFGPRKLKTGGNFKPSQKGFAGGTKSFMDFGSWERHTKGIGQKLLQKMGYVPGRGLGKNAQGIINPIEAKQRKGKGAVGAYGSERTTQSMQDFPVVDSEEEAEEEFQKELSQWRKDPSGSKKKPKYSYKTVEELKAKGRISKKLTAPQKELSQVKVIDMTGREQKVYYSYSQISHKHNVPDDGLPLQSQQLPQSGKEAKAPGFALPELEHNLQLLIDLTEQEIIQNDRQLQYERDMVVNLFHELEKMTEVLDHEERVISNLSKVLEMVEECERRMQPDCSNPLTLDECARIFETLQDKYYEEYRMSDRVDLAVAIVYPLMKEYFKEWDPLKDCTYGTEIISKWKSLLENDQLLSHGGQDLSADAFHRLIWEVWMPFVRNIVTQWQPRNCDPMVDFLDSWVHIIPVWILDNILDQLIFPKLQKEVENWNPLTDTVPIHSWIHPWLPLMQARLEPLYSPIRSKLSSALQKWHPSDSSAKLILQPWKDVFTPGSWEAFMVKNIVPKLGMCLGELVINPHQQHMDAFYWVIDWEGMISVSSLVGLLEKHFFPKWLQVLCSWLSNSPNYEEITKWYLGWKSMFSDQVLAHPSVKDKFNEALDIMNRAVSSNVGAYMQPGARENIAYLTHTERRKDFQYEAMQERREAENMAQRGIGVAASSVPMNFKDLIETKAEEHNIVFMPVIGKRHEGKQLYTFGRIVIYIDRGVVFVQGEKTWVPTSLQSLIDMAK
partner: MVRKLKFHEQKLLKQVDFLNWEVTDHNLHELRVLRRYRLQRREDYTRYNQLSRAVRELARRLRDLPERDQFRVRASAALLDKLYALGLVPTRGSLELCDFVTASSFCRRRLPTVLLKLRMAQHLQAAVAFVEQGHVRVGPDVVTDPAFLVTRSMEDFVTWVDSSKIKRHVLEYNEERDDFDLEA
B6: Syntenin-2 (Homo sapiens), Q9H190 (parent)
chain: MSSLYPSLEDLKVDQAIQAQVRASPKMPALPVQATAISPPPVLYPNLAELENYMGLSLSSQEVQESLLQIPEGDSTAVSGPGPGQMVAPVTGYSLGVRRAEIKPGVREIHLCKDERGKTGLRLRKVDQGLFVQLVQANTPASLVGLRFGDQLLQIDGRDCAGWSSHKAHQVVKKASGDKIVVVVRDRPFQRTVTMHKDSMGHVGFVIKKGKIVSLVKGSSAARNGLLTNHYVCEVDGQNVIGLKDKKIMEILATAGNVVTLTIIPSVIYEHMVKKLPPVLLHHTMDHSIPDA
partner: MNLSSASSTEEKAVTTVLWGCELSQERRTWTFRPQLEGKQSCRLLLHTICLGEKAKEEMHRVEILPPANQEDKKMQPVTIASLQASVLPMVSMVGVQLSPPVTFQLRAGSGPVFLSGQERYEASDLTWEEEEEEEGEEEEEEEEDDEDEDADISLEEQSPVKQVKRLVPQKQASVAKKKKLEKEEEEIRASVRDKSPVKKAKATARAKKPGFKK

Variants of: B1
Settings: with itf2_human TCF4, P15884
itf2_human TCF4, P15884, sequence (P15884 whole entry): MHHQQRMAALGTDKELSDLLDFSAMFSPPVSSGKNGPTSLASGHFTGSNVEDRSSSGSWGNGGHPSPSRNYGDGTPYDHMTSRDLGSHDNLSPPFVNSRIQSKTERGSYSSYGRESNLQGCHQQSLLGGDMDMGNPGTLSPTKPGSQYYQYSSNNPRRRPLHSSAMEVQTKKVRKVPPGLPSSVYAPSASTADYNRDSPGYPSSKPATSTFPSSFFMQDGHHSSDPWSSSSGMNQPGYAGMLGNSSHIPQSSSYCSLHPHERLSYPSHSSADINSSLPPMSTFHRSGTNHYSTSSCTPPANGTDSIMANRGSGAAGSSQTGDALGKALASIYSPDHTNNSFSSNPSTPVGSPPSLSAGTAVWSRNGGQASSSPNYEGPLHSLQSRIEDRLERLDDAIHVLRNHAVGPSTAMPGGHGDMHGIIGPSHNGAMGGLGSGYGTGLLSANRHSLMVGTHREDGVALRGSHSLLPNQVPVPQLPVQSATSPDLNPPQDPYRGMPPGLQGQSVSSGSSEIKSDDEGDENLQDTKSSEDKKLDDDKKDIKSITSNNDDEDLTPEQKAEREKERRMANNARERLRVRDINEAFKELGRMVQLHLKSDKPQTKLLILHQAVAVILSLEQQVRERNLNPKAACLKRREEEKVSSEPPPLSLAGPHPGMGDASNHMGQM

Variant | effect of a mutation on the interaction
R159W | with no effect
F229L | with no effect
Y102C | with no effect

Variants of: B1
Settings: with ikzf3_human IKZF3, Q9UKT9
ikzf3_human IKZF3, Q9UKT9, sequence (Q9UKT9 whole entry): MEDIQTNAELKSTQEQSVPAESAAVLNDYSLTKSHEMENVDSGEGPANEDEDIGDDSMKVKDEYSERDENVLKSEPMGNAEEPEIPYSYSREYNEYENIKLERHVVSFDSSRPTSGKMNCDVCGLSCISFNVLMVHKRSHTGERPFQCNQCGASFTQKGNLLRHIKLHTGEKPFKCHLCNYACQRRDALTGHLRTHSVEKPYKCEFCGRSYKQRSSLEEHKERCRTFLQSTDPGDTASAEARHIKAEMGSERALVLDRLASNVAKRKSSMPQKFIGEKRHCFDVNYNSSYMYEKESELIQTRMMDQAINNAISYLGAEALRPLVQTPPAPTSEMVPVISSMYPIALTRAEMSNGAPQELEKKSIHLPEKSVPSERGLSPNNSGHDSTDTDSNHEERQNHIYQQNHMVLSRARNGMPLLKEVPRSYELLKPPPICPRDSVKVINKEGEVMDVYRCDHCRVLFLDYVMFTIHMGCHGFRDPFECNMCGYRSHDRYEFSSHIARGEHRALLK

Variant | effect of a mutation on the interaction
R159W | with no effect
F229L | with no effect
Y102C | with no effect

Variants of: B2
Settings: with cep55_human CEP55, Q53EZ4

Variant | effect of a mutation on the interaction
T224I | with no effect

Variants of: B3
Settings: with rab2a_human RAB2A

Variant | effect of a mutation on the interaction
S40L | with no effect

Variants of: B4
Settings: with ubp15_human USP15, Q9Y4E8

Variant | effect of a mutation on the interaction
V385L | disrupting interaction strength

Variants of: B5
Settings: with imp3_human IMP3, Q9NV31

Variant | effect of a mutation on the interaction
R8Q | with no effect
S688L | with no effect

Variants of: B6
Settings: with npm2_human NPM2, Q86SE8

Variant | effect of a mutation on the interaction
G225R | disrupting interaction strength
G242R | disrupting interaction strength
V182M | with no effect
